Results on two substances are retold here after article PMC8032703.

Assay [1] concerns the target recombinant FlaB (Vibrio vulnificus MO6-24/O).
In assay [2] the target is FlaBΔC0 (truncated FlaB, from M1 to S332) (Vibrio vulnificus MO6-24/O).
Assay [3] deals with FlaBΔC1 (truncated FlaB, from M1 to A287) (Vibrio vulnificus MO6-24/O).
The target of assay [4] is FlaBΔN0C0 (truncated FlaB, from L54 to S332) (Vibrio vulnificus MO6-24/O).
Assay [5] has as its target FlaBΔN1 (truncated FlaB, from K162 to G377) (Vibrio vulnificus MO6-24/O).
For assay [6], the target named is recombinant FlaB (Vibrio vulnificus MO6-24/O). The source holds these as a separate data set.
Assay [7] shares this target. This is another data set of the same source.
Assay [8] shares this target. The source holds these as a separate data set.

For “recombinant DegQ (serine protease of the HtrA family) (enzyme)”, the EC50 of rDegQ (0-1.2 μM) proteolysing 50% of 1 μM rFlaB in vitro (SDS-PAGE densitometry), representative experiment in assay [1] came out at 140 nM. Besides, the averaged EC50 of rDegQ for in vitro proteolysis of 1 μM FlaBΔC0 in assay [2] stood at 310 nM. Besides, in assay [3], the averaged EC50 of rDegQ for in vitro proteolysis of 1 μM FlaBΔC1 amounted to 340 nM. The averaged EC50 of rDegQ for in vitro proteolysis of 1 μM FlaBΔN0C0 in assay [4] amounted to 320 nM. The substance further gave an averaged EC50 of rDegQ for in vitro proteolysis of 1 μM FlaBΔN1 in assay [5] of 420 nM. For the same substance, the averaged EC50 of rDegQ for in vitro proteolysis of 1 μM rFlaB (three independent experiments) in assay [6] worked out at 130 nM. Further, the averaged EC50 of rDegQ for in vitro proteolysis of 1 μM rFlaB, as given for comparison with the FlaC mutant (Fig. 7b) in assay [7] worked out at 140 nM.
Turning to “recombinant FlaJ (flagellin-specific chaperone) (natural protein)”, the protection of 1 μM rFlaB from proteolysis by 1.08 μM rDegQ with rFlaJ 0-6.67 μM; percent of rFlaB left at 0.56 μM FlaJ in assay [8] was determined as 77%.
